Experimental findings from PMC7688639, “Biased localization of actin binding proteins by actin filament conformation” (Nature Communications, 2020) are described below.

Assay [1] addresses T1, actin filaments (F-actin) polymerised from rabbit muscle actin (rabbit, UniProt P68135 1-377). The assay can be described thus: single-molecule TIRF binding kinetics (on-rate); tethered actin filaments; frequency of binding events for a range of concentrations of actin-binding domain, linear regression of frequency against concentration. The settings on record: both partners purified.

Assay [2] addresses T1, actin filaments (F-actin) polymerised …. The assay can be described thus: single-molecule TIRF binding kinetics (dwell times); actin filaments tethered to a PEG/biotin-PEG coverslip by streptavidin and biotin-phalloidin; labelled binding domain in solution at ~0.05–0.1 nM; 25 mM imidazole, 25 mM KCl, 4 mM MgCl2, 1 mM EGTA, 1 mM DTT, pH 7.4, 10 µg/mL beta casein; double exponential fit of the CDF, bleaching corrected. As to conditions: both partners purified.

Positions count from the first letter of the chain named. In names and notes the source's numbering stands.

B1: actin-binding domain of human utrophin (CH1–CH2, AA 1–261) (domain or fragment)
chain: MAKYGEHEASPDNGQNEFSDIIKSRSDEHNDVQKKTFTKWINARFSKSGKPPINDMFTDLKDGRKLLDLLEGLTGTSLPKERGSTRVHALNNVNRVLQVLHQNNVELVNIGGTDIVDGNHKLTLGLLWSIILHWQVKDVMKDVMSDLQQTNSEKILLSWVRQTTRPYSQVNVLNFTTSWTDGLAFNAVLHRHKPDLFSWDKVVKMSPIERLEHAFSKAQTYLGIEKLLDPEDVAVQLPDKKSIIMYLTSLFEVLPQQVTIDGGSGKCKSA
modifications: maleimide dye on the C-terminal KCK linker (Alexa-488 C5, Alexa-555 C2 or Alexa-647 C2 maleimide; Alexa-555 named as the dye of the dwell-time experiments)
notes: KCK linker on the C terminus for maleimide labelling; both cleaved by TEV; also called utrnWT; utrn ABD; source: E. coli BL21 (DE3) pLysS, purified (IMAC, TEV cleavage, size exclusion chromatography); not shown: His10, N-terminal, cleaved; z-tag, N-terminal, cleaved
As to B1, the kon (commonly the rate constant with which the complex forms) in assay [1] came to 2.2e+06 ± 300000 M⁻¹ s⁻¹. In assay [2], the “average dwell time (τav)” value was approximately 1.1 s and the “ratio of the two dwell-time scales (τ2/τ1)” value amounted to 18.3.

B2: utrophin actin-binding domain Q33A T36A G125A L132A (domain or fragment)
chain: B1 chain with Q33A, T36A, G125A, L132A
modifications: maleimide dye on the C-terminal KCK linker (Alexa-488 C5, Alexa-555 C2 or Alexa-647 C2 maleimide; Alexa-555 named as the dye of the dwell-time experiments)
notes: KCK linker on the C terminus for maleimide labelling; also called utrnSF; source: E. coli BL21 (DE3) pLysS, purified (IMAC, TEV cleavage, size exclusion chromatography); not shown: His10, N-terminal, cleaved; z-tag, N-terminal, cleaved
With B2, the kon in assay [1] is 5e+06 ± 2e+06 M⁻¹ s⁻¹. In addition, the “average dwell time (τav)” value in assay [2] is approximately 4.6 s.

B3: utrophin actin-binding domain Q33A T36A K121A (domain or fragment)
chain: B1 chain with Q33A, T36A, K121A
modifications: maleimide dye on the C-terminal KCK linker (Alexa-488 C5, Alexa-555 C2 or Alexa-647 C2 maleimide; Alexa-555 named as the dye of the dwell-time experiments)
notes: KCK linker on the C terminus for maleimide labelling; also called utrnLAM; source: E. coli BL21 (DE3) pLysS, purified (IMAC, TEV cleavage, size exclusion chromatography); not shown: His10, N-terminal, cleaved; z-tag, N-terminal, cleaved
Turning to B3, the kon in assay [1] amounted to 2.4e+06 ± 300000 M⁻¹ s⁻¹. In addition, in assay [2], the “average dwell time (τav)” value was approximately 1.3 s and the “ratio of the two dwell-time scales (τ2/τ1)” value is 9.6.
